Laboratory results: patent CN117624356A (VAZYME MEDICAL CO LTD; HUNAN NOVAZYME MEDICAL TECH CO LTD, dated 2024)

B1: Rabbit anti-NfL mAb (antibody, V domains shown)
VH: QSVEESGGRLVTPGTPLTLTCTASGIDLSNYAMNWVHQAPGKGLEWIAIIYASGSTYYTTWAKGRFTISKTSSTTVDLKITSPTTEDTATYFCARALSMTNVYTFNIWGPGTLVTVSS
VL: DVVMTQTPASVSEPVGGTVTIKCQASQNIYNNLAWYQQKPGQPPKLLIYKASTLASGVSSRFKGSGSGTEFTLTISDLECADAATYYCQCTYGSSYVAFGGGTEVVVK
notes: Rabbit monoclonal antibody developed earlier by the applicant; Used as the fixed capture antibody (coupled to magnetic beads in the chemiluminescence assay); also called 包被抗体; 配对抗体
B2: Anti-NfL-rRmab-1 (antibody, V domains shown)
VH: QSVEESGGRLVTPGTPLTLTCTASGFSLSIHDMSWVRQAPGKGLEWIGLISSNNNTYYASWAKGRFTISKTSTTVDLKITSPTTEDTATYFCARGGFSTDLWGPGTPVTVSS
VL: DVVMTQTPASVSEPVGGTVTIKCQASQSIYTYLSWYQQKPGQPPKLLIYGASNLASGVSSRFKGSGSGTDYTLTISGVQCDDAATYYCQCTYFSSSYVGGFGGGTEVVVK
notes: Labelled with acridinium ester as the detection antibody in the chemiluminescence assay; also called NfL特异性抗体; 优选抗体

Tests used:
[1] = target: T1, NfL-His重组蛋白 (神经丝轻链蛋白, Neurofilament light chain) (Homo sapiens (Human), UniProt P07196 1-543); test: sandwich ELISA, fixed antibody of the pair
T1 construct: Recombinant, expressed in 293F cells, C-terminal His tag; used as immunogen, sorting antigen and screening antigen; also called NfL-His蛋白
T1 sequence: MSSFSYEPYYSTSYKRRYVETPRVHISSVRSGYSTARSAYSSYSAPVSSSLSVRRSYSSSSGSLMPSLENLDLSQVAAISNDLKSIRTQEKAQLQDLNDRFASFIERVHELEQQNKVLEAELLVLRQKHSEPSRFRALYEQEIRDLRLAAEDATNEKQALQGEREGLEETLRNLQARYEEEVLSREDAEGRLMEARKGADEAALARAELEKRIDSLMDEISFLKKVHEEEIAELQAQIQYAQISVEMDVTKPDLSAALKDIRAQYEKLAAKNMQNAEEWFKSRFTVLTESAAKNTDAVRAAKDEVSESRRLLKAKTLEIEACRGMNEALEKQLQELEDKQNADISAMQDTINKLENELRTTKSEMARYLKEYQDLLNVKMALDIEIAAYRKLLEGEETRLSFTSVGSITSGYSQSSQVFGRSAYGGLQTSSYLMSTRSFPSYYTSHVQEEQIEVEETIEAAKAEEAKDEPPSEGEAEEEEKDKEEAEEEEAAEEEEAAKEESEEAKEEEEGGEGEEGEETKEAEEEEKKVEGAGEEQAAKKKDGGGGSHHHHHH

[2] = target: T1, NfL-His重组蛋白 (神经丝轻链蛋白, Neurofilament …); test: sandwich chemiluminescence, NfL at 10000pg/mL, Rabbit anti-NfL mAb on beads as capture, acridinium ester labelled antibody as detection

Binder | binding result [1] | binding result [2]
B1 | binds | –
B2 | – | binds
